pKd: −log10 of the molar value.
Columns and labels:
Assay in all cases: MST
[1] = biological target: MBP-Mpp83Aa1 modified with ABP5 at AA172-178 (Bacillus thuringiensis)
[2] = biological target: MBP-Mpp83Aa1 modified with ABP5 at AA224-230 (Bacillus thuringiensis)
[3] = biological target: MBP-Mpp83Aa1 modified with ABP5 at AA70-76 (Bacillus thuringiensis)
[4] = biological target: MBP-Mpp83Aa1 (native) (Bacillus thuringiensis)

Q: With “Recombinant N. viridula aminopeptidase N (enzyme)” as the substance, how does the pKd [1] read?
A: 8.30

Q: And the pKd [2]?
A: 6.73

Q: And the pKd [3]?
A: 6.91

Q: And the pKd [4]?
A: 6.86

— PMC9249324
